Results taken from EP4786492A1 (Simcere Zaiming Pharmaceutical Co., Ltd., dated 2026).
Where a chain is given by its changes, count along the chain named.

B1: mab005 scFv-hFc (Fc fusion)
scFv (part 1 of 2): DIVLTQSPATLSVTPGDSVSLSCRASQSVSNDLHWYQQKSHESPRLLIKYASQSISGIPSRFSGSGSGTDFTLTINSVETEDFGMYFCQQSNNWPYTFGGGTKLEMK
scFv (part 2 of 2): QVQLQQSGAELMKPGASVTLSCKATGYTLPGYWIEWVKQRPGHGLEWIGEILPGSSSANYNEKFKGKATFTADTSSNTAYMQLSSLTTEDSAIYYCASTYGTSLDYWGQGTTLTVSS
notes: human-murine chimeric scFv-hFc, VL-linker-VH-human IgG1 Fc; not shown: linker; Fc fragment of human IgG1
B2: mab014 scFv-hFc (Fc fusion)
scFv (part 1 of 2): DIQMTQSSSSFSVSLGDRVTITCKASEDIYNRLAWYQQKPGNTPRLLISGATSLETGVPSRFSGSGSGKDFTLSITSLQTEDVATYYCQQYWSLPWTFGGGTKLEIK
scFv (part 2 of 2): EVQLHQSGPELVKPGTSVKISCKASGYTFTDYYMNWVKQSHGKSLEWIGDINPNHGDTGYNQKFTGKATLTVDKSSSTAYMELRSLTSEDSAVYYCARNFFYYGTTYGWYFDVWGTGTTVTVSS
notes: as for B1
B3: mab008 scFv-hFc (Fc fusion)
scFv (part 1 of 2): DIVMTQSQKFMSTSVGDRVSITCKASQNVGTAVAWYQQKPGQSPKLLIFSASIRYTGVPDRFTGSGSGTDFTLTISNMQSEDLADYFCQQYSSSPYTFGGGTKLEIK
scFv (part 2 of 2): EVQLQQSGPVLVKPGASVKMSCKASGYTFTDYYMNWVKRSHGKSLEWIGIINPYNGGTSYNQKFRGKATLTVDKSSNTAYMELNSLTSEDSAVYYCSRYDYDYDVEGAMDYWGQGTSVTVSS
notes: as for B1
B4: SC16.56 (antibody, human IgG1, kappa, V domains shown)
VH: QVQLVQSGAEVKKPGASVKVSCKASGYTFTNYGMNWVRQAPGQGLEWMGWINTYTGEPTYADDFKGRVTMTTDTSTSTAYMELRSLRSDDTAVYYCARIGDSSPSDYWGQGTLVTVSS
VL: EIVMTQSPATLSVSPGERATLSCKASQSVSNDVVWYQQKPGQAPRLLIYYASNRYTGIPARFSGSGSGTEFTLTISSLQSEDFAVYYCQQDYTSPWTFGQGTKLEIKR
notes: expressed in the complete IgG format; variable regions from US20200138969A1; also called control antibody
B5: Hab015VL4VH6b-hFc (Fc fusion)
scFv (part 1 of 2): NIVLTQSPATLSLSPGERATLSCKASENVGTYVSWFQQKPGQSPRLLIYGASNRYTGIPARFSGSGSGTDFTLTISSLEPEDFAVYYCGQFYSFPSTFGGGTKVEIK
scFv (part 2 of 2): EVQLVESGGGLVKPGGSLRLSCAASGITFSNFWMNWVRQAPEKGLEWVGQIRLKSDQYATHYAESVKGRFTISREDSKNTVYLQMNSLKTEDTAVYYCTTGYYFDYWGQGTTVTVSS
notes: humanized mab015, VL-linker-VH-human IgG1 Fc; also called Hab015L4H6b; not shown: linker; human IgG1 Fc fragment
B6: mab003 scFv-hFc (Fc fusion)
scFv (part 1 of 2): DVQITQSPSYLAASPGETITINCRASKSISKYLAWYQEKPGKTNKLLIYSGSTLHSGIPSRFSGSGSGTDFTLTISSLEPEDFAIYYCQQHNEYPLTFGGGTKLELK
scFv (part 2 of 2): QVQLQQSGTELMKPGASVKLSCKATGYTFTGNWIEWVKQRPGHGLEWIGEILPGTGSTQYNEKFKGKATFTADPSSNTAYMQLSSLTTEDSAIYYCARWGSTVVAYDYWGQGTTLTVSS
notes: as for B1
B7: mab006 scFv-hFc (Fc fusion)
scFv (part 1 of 2): B6 scFv (part 1 of 2) with S26T, Y49F, H55Q, S63R, I85M, N92H, L96Y, L106I
scFv (part 2 of 2): QVQLQQPGAELVRPGTSVKLSCKASGYTFTSYWMHWVRQRPGQGLEWIGVIDPSDSLANYNQEFKGKATLTVDTSSSTAYMQLSSLTSEDSAVYYCARDSTVVAPMDYWGQGTSVTVSS
notes: as for B1
B8: mab007 scFv-hFc (Fc fusion)
scFv (part 1 of 2): B6 scFv (part 1 of 2) with K27T, K39R, H55Q, S63R, I85M, N92H, E93V, L96Y, L106I
scFv (part 2 of 2): B7 scFv (part 2 of 2) with R38K
notes: as for B1
B9: mab004 scFv-hFc (Fc fusion)
scFv (part 1 of 2): DIVLTQSPASLAVSLGQRATISCRASESVDYDGDSYMNWYQQKPGQPPKLLIYVASNLESGIPARFSGSGSGTDFILNIHPVEEEDAATYYCLQSNEAPYTFGSGTKLEIK
scFv (part 2 of 2): QVQLQQPGAELVKPGASVKLSCKASGYTFTSYWINWVKQRPGQGLEWIGNIYPGSSSPNYNEKFKSKATLTVDTSSSTAYMQLSSLTSDDSAVYYCARSLLYAMDYWGQGTSVTVSS
notes: as for B1
B10: BI3 (antibody, human IgG1, kappa, V domains shown)
VH: QVQLVQSGAEVKKPGASVKVSCKASGYTFTSYYVHWVRQAPGQGLEWMVIINPGGGTTSYAQKFLGRVTMTRDTSTNTVYMELKSLRSEDTAVYYCARGEAVTGNYFYYGMDVWGQGTTVTVSS
VL: DIQMTQSPSAMSASVGDRVTITCRASQGISNYLVWFQQKPGKAPKRLIYAVSSLYSGVPSRFSGSGSGTEFTLTISSLQPEDFATYYCLQHDSYPYTFGQGTKLEIKR
notes: control antibody in complete IgG format, variable regions from WO2019234220A1
B11: BI3 (antibody, human IgG1, kappa, V domains shown)
VH: B10 VH
VL: B10 VL
notes: expressed in the complete IgG format; variable regions from WO2019234220A1; also called control antibody
B12: mab012 scFv-hFc (Fc fusion)
scFv (part 1 of 2): DVLMTQTPLSLPVSLGDQASISCRSSQSIVHSDGNTYLEWYLQKPGQSPKLLIYKVSNRFSGVPDRFSGSGSGTDFTLKISRVEAEDLGFYYCFQGSHVPFTFGSGTKLEIK
scFv (part 2 of 2): QVQLQQSGPELVKPGASVKISCKASGYTFTDYYIHWVKQRPGQGLEWIGWTLPGSGSPYYNEKFKGKATLTVDKSSSTAYMLLSSLTSEDSAVYFCARWHYYYGSSYHFDYWGQGTTLTVSS
notes: as for B1

Tests used:
[1] = molecular target: T1, monkey DLL3 on CHO K1-cyno DLL3 cells (cynomolgus monkey); test: FACS, CHO K1-cyno DLL3 cells
T1 construct: also called monkey DLL3 recombinant cell line
T1 chain: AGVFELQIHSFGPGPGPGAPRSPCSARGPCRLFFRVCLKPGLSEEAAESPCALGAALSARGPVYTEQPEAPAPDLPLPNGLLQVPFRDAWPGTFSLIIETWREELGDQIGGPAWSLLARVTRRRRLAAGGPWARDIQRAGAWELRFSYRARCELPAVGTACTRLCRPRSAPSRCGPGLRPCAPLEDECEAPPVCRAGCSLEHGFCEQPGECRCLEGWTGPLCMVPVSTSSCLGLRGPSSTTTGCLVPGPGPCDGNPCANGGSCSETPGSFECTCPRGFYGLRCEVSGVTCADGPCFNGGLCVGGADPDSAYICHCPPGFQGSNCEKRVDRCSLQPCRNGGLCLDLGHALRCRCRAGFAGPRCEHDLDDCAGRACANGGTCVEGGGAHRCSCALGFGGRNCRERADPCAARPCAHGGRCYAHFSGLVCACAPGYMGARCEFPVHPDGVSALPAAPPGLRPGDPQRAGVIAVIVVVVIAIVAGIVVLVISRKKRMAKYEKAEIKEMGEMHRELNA

human DLL3-his protein [2] = molecular target: T2, human DLL3-his protein (human, UniProt Q9NYJ7 27-492); test: ELISA
T2 construct: also called human DLL3 protein; DLL3 antigen protein; not shown: His tag
T2 sequence: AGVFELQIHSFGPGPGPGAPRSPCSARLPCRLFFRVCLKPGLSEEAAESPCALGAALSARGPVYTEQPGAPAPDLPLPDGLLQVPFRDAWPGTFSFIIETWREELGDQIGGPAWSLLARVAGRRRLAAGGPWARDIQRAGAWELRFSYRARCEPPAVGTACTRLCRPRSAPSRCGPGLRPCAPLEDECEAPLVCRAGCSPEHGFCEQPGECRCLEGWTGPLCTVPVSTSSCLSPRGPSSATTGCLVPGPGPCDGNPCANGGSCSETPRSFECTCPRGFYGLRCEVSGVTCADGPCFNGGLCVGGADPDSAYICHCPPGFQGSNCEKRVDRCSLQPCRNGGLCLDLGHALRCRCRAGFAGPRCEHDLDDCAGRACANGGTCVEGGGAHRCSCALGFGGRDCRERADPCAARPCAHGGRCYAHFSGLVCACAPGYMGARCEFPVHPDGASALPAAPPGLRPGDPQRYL

human DLL1 protein = molecular target: T3, human DLL1 protein (human, UniProt O00548 18-540, limits assumed); test: ELISA, maximum over 0.1-100 nM
T3 construct: bought protein; construct and tag not described; also called hDLL1
T3 sequence (looked up): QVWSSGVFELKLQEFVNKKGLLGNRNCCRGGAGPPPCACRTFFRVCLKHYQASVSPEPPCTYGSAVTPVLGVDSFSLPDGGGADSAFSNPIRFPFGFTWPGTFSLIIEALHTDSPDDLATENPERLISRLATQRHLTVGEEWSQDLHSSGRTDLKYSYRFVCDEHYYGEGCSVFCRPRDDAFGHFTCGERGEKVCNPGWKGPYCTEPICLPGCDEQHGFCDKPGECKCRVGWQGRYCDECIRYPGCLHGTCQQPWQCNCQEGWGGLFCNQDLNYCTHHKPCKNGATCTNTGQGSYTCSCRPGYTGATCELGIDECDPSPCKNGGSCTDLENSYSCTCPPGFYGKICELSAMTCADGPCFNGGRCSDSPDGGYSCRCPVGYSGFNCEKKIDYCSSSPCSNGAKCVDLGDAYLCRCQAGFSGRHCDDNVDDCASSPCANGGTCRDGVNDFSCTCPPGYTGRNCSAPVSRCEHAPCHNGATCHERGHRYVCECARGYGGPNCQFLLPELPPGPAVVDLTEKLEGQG

human DLL4 protein = molecular target: T4, human DLL4 protein (human, UniProt Q9NR61 27-524, limits assumed); test: ELISA, maximum over 0.1-100 nM
T4 construct: bought protein; construct and tag not described; also called hDLL4
T4 sequence (Q9NR61 27-524 limits assumed): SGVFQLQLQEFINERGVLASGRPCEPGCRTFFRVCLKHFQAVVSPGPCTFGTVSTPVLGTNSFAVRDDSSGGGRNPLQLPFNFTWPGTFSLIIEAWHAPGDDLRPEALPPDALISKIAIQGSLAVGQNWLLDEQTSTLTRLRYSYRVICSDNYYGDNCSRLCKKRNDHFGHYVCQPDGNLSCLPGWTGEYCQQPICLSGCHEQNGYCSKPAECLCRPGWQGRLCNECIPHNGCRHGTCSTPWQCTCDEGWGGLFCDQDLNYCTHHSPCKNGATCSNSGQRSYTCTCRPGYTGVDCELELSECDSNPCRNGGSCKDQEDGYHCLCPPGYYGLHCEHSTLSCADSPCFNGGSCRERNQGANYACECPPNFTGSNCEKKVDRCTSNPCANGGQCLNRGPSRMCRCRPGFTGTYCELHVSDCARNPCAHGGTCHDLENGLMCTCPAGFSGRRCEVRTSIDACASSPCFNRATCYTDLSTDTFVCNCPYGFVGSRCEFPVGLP

monkey DLL3-his protein = molecular target: T5, monkey DLL3-his protein (cynomolgus monkey, UniProt Q9NYJ7 27-490 (human entry)); test: ELISA, coated DLL3-his
T5 construct: a bought cynomolgus DLL3-His (Acro DL3-C52H3) is also named; also called monkey DLL3 protein; cynomolgus monkey DLL3-His; not shown: His tag
T5 chain: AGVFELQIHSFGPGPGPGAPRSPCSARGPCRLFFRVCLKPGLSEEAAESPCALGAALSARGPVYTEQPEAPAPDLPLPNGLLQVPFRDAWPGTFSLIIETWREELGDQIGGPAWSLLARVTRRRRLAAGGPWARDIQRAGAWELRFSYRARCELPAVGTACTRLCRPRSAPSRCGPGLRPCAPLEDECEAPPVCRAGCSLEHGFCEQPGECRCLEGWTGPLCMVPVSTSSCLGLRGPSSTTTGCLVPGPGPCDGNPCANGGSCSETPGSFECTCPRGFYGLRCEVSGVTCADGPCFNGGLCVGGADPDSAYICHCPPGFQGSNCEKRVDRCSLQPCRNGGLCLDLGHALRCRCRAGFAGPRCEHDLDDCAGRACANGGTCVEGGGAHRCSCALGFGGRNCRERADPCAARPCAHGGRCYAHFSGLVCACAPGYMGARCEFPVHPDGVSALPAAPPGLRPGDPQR

human DLL3-his protein [3] = molecular target: T2, human DLL3-his protein; test: ELISA, coated DLL3-his
human DLL3-his protein [4] = molecular target: T2, human DLL3-his protein; test: SPR Biacore 8K, antibody captured on Protein A
[5] = molecular target: T6, human DLL3 protein (extracellular segment, His tag) (human, UniProt Q9NYJ7 27-492); test: SPR (Biacore 8K), antibody captured on Protein A chip, DLL3 antigen in solution, 1:1 Langmuir fit
T6 construct: also called human DLL3-his protein; DLL3 antigen; not shown: His tag
T6 sequence: T2 sequence

Binder	binding result [1]	binding result (human DLL3-his protein [2])	Emax of OD450 nm binding value (human DLL1 protein) [OD450]	Emax of OD450 nm binding value (human DLL4 protein) [OD450]	also measured
B1	binds	binds	0.05	0.04	
B2	binds	binds	0.08	0.06	
B3	binds	binds	0.09	0.08	
B4					binding result (monkey DLL3-his protein): binds; binding result (human DLL3-his protein [3]): binds
B5					binding result (human DLL3-his protein [4]): binds
B6	binds	binds	0.06	0.05	
B7	binds	binds	0.08	0.07	
B8	binds	binds	0.07	0.06	
B9	binds	binds	0.05	0.04	
B10					Kd [5]: 0.0497 nM; koff [5]: 4.7e-05 s⁻¹; kon [5]: 945000 M⁻¹ s⁻¹
B11					binding result (monkey DLL3-his protein): binds
B12	binds	binds	0.08	0.08	
